This is an account of results in patent US20220177587A1, “METHODS AND USES OF VARIANT CD80 FUSION PROTEINS AND RELATED CONSTRUCTS” (Alpine Immune Sciences, Inc., priority 2018, published 2022).

The target in test [1] is PD-L1 (human) (UniProt Q9NZQ7).
In test [2] the target is CD28 (human) (UniProt P10747).
Test [3] concerns the target CD28 (human) (UniProt P10747). This is another data set of the same source.
The target of test [4] is PD-L1 (human) (UniProt Q9NZQ7). Description: flow cytometry, Expi293F cells transfected with PD-L1. For orientation: In flow cytometry, cells or beads pass a laser one at a time.
The target in test [5] is human CTLA-4 (human) (UniProt P16410). Description: flow cytometry, Expi293F cells transfected with CTLA-4.
Chain of human CTLA-4 (human) (P16410 36-223): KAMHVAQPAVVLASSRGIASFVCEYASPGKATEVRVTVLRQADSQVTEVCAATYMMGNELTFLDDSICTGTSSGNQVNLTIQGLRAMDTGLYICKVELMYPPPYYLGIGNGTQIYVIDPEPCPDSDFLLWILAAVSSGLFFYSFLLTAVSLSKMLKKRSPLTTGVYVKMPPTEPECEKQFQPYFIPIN
For test [6], the target named is CD28 (human) (UniProt P10747). Description: flow cytometry, Expi293F cells transfected with CD28.
In test [7] the target is CD28 (human) (UniProt P10747). Description: flow cytometry, Jurkat cells (CD28).
The target of test [8] is PD-L1 (human) (UniProt Q9NZQ7). Description: flow cytometry, CHO cells stably expressing PD-L1.
Test [9] addresses human CTLA-4 (human) (UniProt P16410). Description: flow cytometry, CHO cells stably expressing CTLA4.

Chain of PD-L1 (human) (Q9NZQ7 19-290): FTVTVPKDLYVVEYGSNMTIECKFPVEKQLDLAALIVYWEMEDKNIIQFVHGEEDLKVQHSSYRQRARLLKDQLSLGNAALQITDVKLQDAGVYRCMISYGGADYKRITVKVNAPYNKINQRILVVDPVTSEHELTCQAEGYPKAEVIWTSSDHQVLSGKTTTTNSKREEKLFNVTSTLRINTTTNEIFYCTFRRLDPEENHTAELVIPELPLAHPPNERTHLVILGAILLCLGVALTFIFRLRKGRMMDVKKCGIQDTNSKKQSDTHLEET

In turn, “CD80 A26E/E35D/M47L/L85Q IgV-Fc (effector) (Fc fusion)” returned a Jurkat/IL2 reporter RLU at 50 nM, K562/OKT3/PD-L1 aAPC with PD-L1 (human) [1] of 2640 RLU. Also, in the test with CD28 (human) [2], the Jurkat/IL2 reporter RLU at 50 nM, K562/OKT3/PD-L1 aAPC was 2640 RLU and the Jurkat/IL2 reporter RLU at 50 nM, K562/OKT3 aAPC without PD-L1 was 1330 RLU.

In the case of “CD80 A71D/L72V/E95K IgV-Fc (effector) (Fc fusion)”, the Jurkat/IL2 reporter RLU at 50 nM, K562/OKT3/PD-L1 aAPC with PD-L1 (human) [1] came to 4030 RLU. In addition, in the test with CD28 (human) [2], the Jurkat/IL2 reporter RLU at 50 nM, K562/OKT3/PD-L1 aAPC turned out to be 4030 RLU and the Jurkat/IL2 reporter RLU at 50 nM, K562/OKT3 aAPC without PD-L1 is 7110 RLU. In addition, the IL-2 release, primary T cells + K562/OKT3 (No PD-L1), 100 nM with CD28 (human) [3] turned out to be 21300.

Turning to CD80 A91G ECD-Fc (Fc fusion), in the test with PD-L1 (human) [4], the MFI was determined as 85 MFI and the parental ratio amounted to 1.21. In the test with human CTLA-4 (human) [5], this substance gave an MFI of 200 MFI.

Turning to “CD80 E23G/A26S/E35D/T62N/A71D/L72V/L85M IgV-Fc (effector) (Fc fusion)”, the Jurkat/IL2 reporter RLU at 50 nM, K562/OKT3/PD-L1 aAPC with PD-L1 (human) [1] came to 4140 RLU. In the test with CD28 (human) [2], this substance displayed a Jurkat/IL2 reporter RLU at 50 nM, K562/OKT3/PD-L1 aAPC of 4140 RLU and a Jurkat/IL2 reporter RLU at 50 nM, K562/OKT3 aAPC without PD-L1 of 7860 RLU. The IL-2 release, primary T cells + K562/OKT3 (No PD-L1), 100 nM in the test with CD28 (human) [3] is 27000.

Regarding “CD80 E24G/L25P/L70Q/A91G/I118V/T120S/N152T ECD-Fc (Fc fusion)”, the MFI was 38 MFI in the test with human CTLA-4 (human) [5] and 26 MFI in the test with CD28 (human) [6].

CD80 E35D IgV-Fc (effector) (Fc fusion): in the test with PD-L1 (human) [1], the Jurkat/IL2 reporter RLU at 50 nM, K562/OKT3/PD-L1 aAPC amounted to 2270 RLU. In the test with CD28 (human) [2], the Jurkat/IL2 reporter RLU at 50 nM, K562/OKT3/PD-L1 aAPC amounted to 2270 RLU and the Jurkat/IL2 reporter RLU at 50 nM, K562/OKT3 aAPC without PD-L1 was found to be 1200 RLU. Also, in the test with CD28 (human) [3], the IL-2 release, primary T cells + K562/OKT3 (No PD-L1), 100 nM came to 8380.

For the substance “CD80 E35D/D46V/L85Q IgV-Fc (effector) (Fc fusion)”, the Jurkat/IL2 reporter RLU at 50 nM, K562/OKT3/PD-L1 aAPC in the test with PD-L1 (human) [1] came out at 4130 RLU. Besides, in the test with CD28 (human) [2], the Jurkat/IL2 reporter RLU at 50 nM, K562/OKT3/PD-L1 aAPC came out at 4130 RLU and the Jurkat/IL2 reporter RLU at 50 nM, K562/OKT3 aAPC without PD-L1 worked out at 7020 RLU. Besides, in the test with CD28 (human) [3], the IL-2 release, primary T cells + K562/OKT3 (No PD-L1), 100 nM is 25400.

With “CD80 E35D/M43L/L70M IgV-Fc (effector) (Fc fusion)”, the Jurkat/IL2 reporter RLU at 50 nM, K562/OKT3/PD-L1 aAPC with PD-L1 (human) [1] and with CD28 (human) [2] was 2780 RLU each time. Moreover, the Jurkat/IL2 reporter RLU at 50 nM, K562/OKT3 aAPC without PD-L1 with CD28 (human) [2] turned out to be 1570 RLU. Also, in the test with CD28 (human) [3], the IL-2 release, primary T cells + K562/OKT3 (No PD-L1), 100 nM was 10500.

On to “CD80 E35D/M47I IgV-Fc (effector) (Fc fusion)”, for which the Jurkat/IL2 reporter RLU at 50 nM, K562/OKT3/PD-L1 aAPC in the test with PD-L1 (human) [1] and in the test with CD28 (human) [2] was 5700 RLU each time. This substance gave a Jurkat/IL2 reporter RLU at 50 nM, K562/OKT3 aAPC without PD-L1 with CD28 (human) [2] of 7140 RLU. Further, the IL-2 release, primary T cells + K562/OKT3 (No PD-L1), 100 nM with CD28 (human) [3] came out at 27200.

“CD80 E35D/M47I/L70M IgV-Fc (effector) (Fc fusion)” registered a Jurkat/IL2 reporter RLU at 50 nM, K562/OKT3/PD-L1 aAPC with PD-L1 (human) [1] of 3870 RLU. In the test with CD28 (human) [2], this substance gave a Jurkat/IL2 reporter RLU at 50 nM, K562/OKT3/PD-L1 aAPC of 3870 RLU and a Jurkat/IL2 reporter RLU at 50 nM, K562/OKT3 aAPC without PD-L1 of 5780 RLU. Further, the IL-2 release, primary T cells + K562/OKT3 (No PD-L1), 100 nM in the test with CD28 (human) [3] stood at 25300.

In turn, “CD80 E35D/M47L IgV-Fc (effector) (Fc fusion)” returned a Jurkat/IL2 reporter RLU at 50 nM, K562/OKT3/PD-L1 aAPC in the test with PD-L1 (human) [1] of 5040 RLU. Moreover, in the test with CD28 (human) [2], the Jurkat/IL2 reporter RLU at 50 nM, K562/OKT3/PD-L1 aAPC was 5040 RLU and the Jurkat/IL2 reporter RLU at 50 nM, K562/OKT3 aAPC without PD-L1 stood at 8680 RLU. The IL-2 release, primary T cells + K562/OKT3 (No PD-L1), 100 nM with CD28 (human) [3] came out at 26800.

“CD80 E35G/K54E/A71D/L72P IgV-Fc (effector) (Fc fusion)” registered a Jurkat/IL2 reporter RLU at 50 nM, K562/OKT3/PD-L1 aAPC with PD-L1 (human) [1] of 805 RLU. Besides, in the test with CD28 (human) [2], the Jurkat/IL2 reporter RLU at 50 nM, K562/OKT3/PD-L1 aAPC was 805 RLU and the Jurkat/IL2 reporter RLU at 50 nM, K562/OKT3 aAPC without PD-L1 was 1510 RLU.

Take “CD80 H18Y/A26T/E35D/A71D/L85Q IgV-Fc (effector) (Fc fusion)”: in the test with PD-L1 (human) [1], the Jurkat/IL2 reporter RLU at 50 nM, K562/OKT3/PD-L1 aAPC was 5220 RLU. In the test with CD28 (human) [2], this substance registered a Jurkat/IL2 reporter RLU at 50 nM, K562/OKT3/PD-L1 aAPC of 5220 RLU and a Jurkat/IL2 reporter RLU at 50 nM, K562/OKT3 aAPC without PD-L1 of 8750 RLU. Besides, the IL-2 release, primary T cells + K562/OKT3 (No PD-L1), 100 nM in the test with CD28 (human) [3] is 20600.

Consider “CD80 IgV-Fc H18Y/E35D/M47L/V68M/E95V/L97Q (Fc fusion)”, for which the MFI at 33.3 nM in the test with CD28 (human) [7] turned out to be 2600 MFI; with PD-L1 (human) [8], 9630 MFI; with human CTLA-4 (human) [9], 18000 MFI.

Consider “CD80 IgV-Fc H18Y/E35D/M47L/Y53F/V68M/A71G/K93R/E95V (Fc fusion)”, for which the MFI at 33.3 nM with CD28 (human) [7] is 2190 MFI; with PD-L1 (human) [8] it was 9340 MFI; with human CTLA-4 (human) [9] it was 19800 MFI.

In the case of “CD80 IgV-Fc H18Y/E35D/V68M/A71G/R94Q/E95V (Fc fusion)”, the MFI at 33.3 nM with CD28 (human) [7] was 455 MFI; with PD-L1 (human) [8], 1840 MFI; with human CTLA-4 (human) [9], 19400 MFI. Moreover, the Fold change to WT CD80 in the test with PD-L1 (human) [8] stood at 25.9 fold; with human CTLA-4 (human) [9] it was 18.6 fold.
